Experimental data from paper PMC10087552, “Non‐canonical binding of the Chaetomium thermophilum PolD4 N‐terminal PIP motif to PCNA involves Q‐pocket and compact 2‐fork plug interactions but no 3_10 helix” (The Febs Journal, 2022).

Key:
[1] = target: Chaetomium thermophilum PCNA (proliferating cell nuclear antigen) (Chaetomium thermophilum); assay: crystal structure; apo Ct PCNA; 0.1 M PTCP buffer pH 5.0, 25% PEG 1500; 2.34 Å, space group H3, a single chain in the asymmetric unit
[2] = target: Chaetomium thermophilum PCNA (proliferating cell nuclear antigen) (Chaetomium thermophilum); assay: crystal structure; co-crystallisation of Ct PCNA with the peptide; 0.2 M calcium acetate, 0.1 M sodium cacodylate pH 6.5, 36% PEG 300; 2.45 Å, space group P1, two trimers in the asymmetric unit
human PCNA = settings: human PCNA–p12 PIP peptide interaction; ref [25]; read-out: dissociation constant (K D); cited from earlier work
Method: To examine the interaction between the Ct PolD4 PIP motif and Ct PCNA in greater detail and in the absence of GST, isothermal titration calorimetry (ITC) was used to determine the binding affinity of PCNA for a 15 amino acid synthetic PolD4 PIP peptide (sequence: ^21KHQSTLNFKHRVTKP^35) and the stoichiometry of the interaction (Fig. 4C). The dissociation constant (K D) was determined to be 22 ± 0.6 μM at 25 °C, broadly similar to that reported for the human PCNA–p12 PIP peptide interaction (38 ± 4 μM). The stoichiometry was determined to be 1 : 1 (i.e. 1 peptide : 1 PCNA protomer) indica ... || Three amino acids are key to interactions between Ct PolD4 and Ct PCNA: Gln23, Leu26 and Phe28. All three are strictly conserved in PolD4 proteins from fungal species closely related to C. thermophilum (Fig. 3). The sidechain of Gln23 inserts into the Q‐pocket on PCNA while the sidechains of Leu26 and Phe28 insert into the hydrophobic pocket located under the interdomain connector loop (IDCL) on the surface of PCNA (Figs 5 and 6A, upper left panel). The human p12 protein lacks the glutamine, equivalent to Gln23, that marks the start of the canonical PIP motif (Qxxψxxθθ), instead having a lysin ...

[3] = target: Chaetomium thermophilum PCNA (proliferating cell nuclear antigen) (Chaetomium thermophilum); assay: ITC; Ct PolD4 PIP peptide (400 uM) titrated into Ct PCNA (30 uM) in the cell, 25 °C, 50 mM Tris-HCl, 50 mM NaCl, pH 8.0; single-site binding model; duplicate

## Chaetomium thermophilum PCNA (proliferating cell nuclear antigen) (natural protein)
[1]
  stoichiometry N: 3 protomers
[2]
  stoichiometry N: 3 protomers

## RKRLITDSYPVV [human p12 PIP peptide, N‐terminal PIP motif peptide of the human Pol δ subunit p12 (PolD4)]
Human PCNA
  Kd: 38 ± 4 µM

## KHQSTLNFKHRVTKP [Ct PolD4 PIP peptide (residues 21-35 of Chaetomium thermophilum PolD4)]
[3]
  Kd: 22 µM
  stoichiometry N (peptide per PCNA protomer): 1
